Drawing on paper PMC8141872, this text covers Kd for one molecule.

The target of the experiment is GST-fused PINCH-1 LIM5 domain (residues 249-325) (human), P48059. The experiment is described as follows: BLI; BLItz; GST-fused PINCH protein or GST (0.05 mg/ml) loaded on anti-GST biosensor, Rsu-1 WT or mutant in the mobile phase; 20 mM Tris pH 7.5, 150 mM NaCl, 1 mg/ml BSA, 0.05% Tween-20; 1:1 global fit; at least three measurements. The following applies: remark: other sources report otherwise. Background: BLI is a label-free optical method that tracks binding on a fibre tip over time.
Sequence of GST-fused PINCH-1 LIM5 domain (residues 249-325) (human), P48059 (P48059 249-325): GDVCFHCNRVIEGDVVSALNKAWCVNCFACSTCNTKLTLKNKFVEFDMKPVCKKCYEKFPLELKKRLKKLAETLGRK

B1: Rsu-1 triple mutant R2W (Phe71Arg, Arg165Trp, Asp166Arg), Q15404 1-277 (natural protein)
chain: MSKSLKKLVEESREKNQPEVDMSDRGISNMLDVNGLFTLSHITQLVLSHNKLTMVPPNIAELKNLEVLNFRNNQIEELPTQISSLQKLKHLNLGMNRLNTLPRGFGSLPALEVLDLTYNNLSENSLPGNFFYLTTLRALYLSDNDFEILPPDIGKLTKLQILSLWRNDLISLPKEIGELTQLKELHIQGNRLTVLPPELGNLDLTGQKQVFKAENNPWVTPIADQFQLGVSHVFEYIRSETYKYLYGRHMQANPEPPKKNNDKSKKISRKPLAAKNR
B1: the dissociation constant (Kd) (as a rule, the free concentration of one partner at which half of the binding sites on the other are occupied at equilibrium, for simple one-to-one binding) is 33.3 µM.
